As usually defined, the Kd is the concentration at which binding is half-saturated. Low values mean higher affinity, high ones lower affinity.

The values below come from patent US20260224661A1 (Stanford University, published 2026).

In assay [1] the target is Tenm1 (as used in the affinity determinations of FIG. 2E-F) (UniProt Q9UKZ4 1-2725). The assay can be described thus: surface binding saturation curve.
The target of assay [2] is T1, Tenm2 expressed in HEK293 cells (human, UniProt Q9NT68 1-2774).
T1 construct: also called teneurin-2
Briefly: surface-binding assay on HEK293 cells expressing Tenm2 (FIG. 4E).

Assay [3] deals with T2, Tenm1 expressed in HEK293 cells (human, UniProt Q9UKZ4 1-2725).
T2 construct: also called teneurin-1
The assay can be described thus: surface-binding assay on HEK293 cells expressing Tenm1 (FIG. 4E).

Assay [4] has as its target T3, Tenm3 expressed in HEK293 cells (mouse, UniProt Q9WTS6 1-2715).
T3 construct: also called teneurin-3
Briefly: surface-binding assay on HEK293 cells expressing Tenm3 (FIG. 4E).

The target of assay [5] is T4, Tenm4 expressed in HEK293 cells (mouse, UniProt Q3UHK6 1-2771).
T4 construct: also called teneurin-4
The assay can be described thus: surface-binding assay on HEK293 cells expressing Tenm4 (FIG. 4E).

Tenm1 (as used in the affinity determinations of FIG. 2E-F), sequence (Q9UKZ4 other isoform, or with tags, fused parts or gaps): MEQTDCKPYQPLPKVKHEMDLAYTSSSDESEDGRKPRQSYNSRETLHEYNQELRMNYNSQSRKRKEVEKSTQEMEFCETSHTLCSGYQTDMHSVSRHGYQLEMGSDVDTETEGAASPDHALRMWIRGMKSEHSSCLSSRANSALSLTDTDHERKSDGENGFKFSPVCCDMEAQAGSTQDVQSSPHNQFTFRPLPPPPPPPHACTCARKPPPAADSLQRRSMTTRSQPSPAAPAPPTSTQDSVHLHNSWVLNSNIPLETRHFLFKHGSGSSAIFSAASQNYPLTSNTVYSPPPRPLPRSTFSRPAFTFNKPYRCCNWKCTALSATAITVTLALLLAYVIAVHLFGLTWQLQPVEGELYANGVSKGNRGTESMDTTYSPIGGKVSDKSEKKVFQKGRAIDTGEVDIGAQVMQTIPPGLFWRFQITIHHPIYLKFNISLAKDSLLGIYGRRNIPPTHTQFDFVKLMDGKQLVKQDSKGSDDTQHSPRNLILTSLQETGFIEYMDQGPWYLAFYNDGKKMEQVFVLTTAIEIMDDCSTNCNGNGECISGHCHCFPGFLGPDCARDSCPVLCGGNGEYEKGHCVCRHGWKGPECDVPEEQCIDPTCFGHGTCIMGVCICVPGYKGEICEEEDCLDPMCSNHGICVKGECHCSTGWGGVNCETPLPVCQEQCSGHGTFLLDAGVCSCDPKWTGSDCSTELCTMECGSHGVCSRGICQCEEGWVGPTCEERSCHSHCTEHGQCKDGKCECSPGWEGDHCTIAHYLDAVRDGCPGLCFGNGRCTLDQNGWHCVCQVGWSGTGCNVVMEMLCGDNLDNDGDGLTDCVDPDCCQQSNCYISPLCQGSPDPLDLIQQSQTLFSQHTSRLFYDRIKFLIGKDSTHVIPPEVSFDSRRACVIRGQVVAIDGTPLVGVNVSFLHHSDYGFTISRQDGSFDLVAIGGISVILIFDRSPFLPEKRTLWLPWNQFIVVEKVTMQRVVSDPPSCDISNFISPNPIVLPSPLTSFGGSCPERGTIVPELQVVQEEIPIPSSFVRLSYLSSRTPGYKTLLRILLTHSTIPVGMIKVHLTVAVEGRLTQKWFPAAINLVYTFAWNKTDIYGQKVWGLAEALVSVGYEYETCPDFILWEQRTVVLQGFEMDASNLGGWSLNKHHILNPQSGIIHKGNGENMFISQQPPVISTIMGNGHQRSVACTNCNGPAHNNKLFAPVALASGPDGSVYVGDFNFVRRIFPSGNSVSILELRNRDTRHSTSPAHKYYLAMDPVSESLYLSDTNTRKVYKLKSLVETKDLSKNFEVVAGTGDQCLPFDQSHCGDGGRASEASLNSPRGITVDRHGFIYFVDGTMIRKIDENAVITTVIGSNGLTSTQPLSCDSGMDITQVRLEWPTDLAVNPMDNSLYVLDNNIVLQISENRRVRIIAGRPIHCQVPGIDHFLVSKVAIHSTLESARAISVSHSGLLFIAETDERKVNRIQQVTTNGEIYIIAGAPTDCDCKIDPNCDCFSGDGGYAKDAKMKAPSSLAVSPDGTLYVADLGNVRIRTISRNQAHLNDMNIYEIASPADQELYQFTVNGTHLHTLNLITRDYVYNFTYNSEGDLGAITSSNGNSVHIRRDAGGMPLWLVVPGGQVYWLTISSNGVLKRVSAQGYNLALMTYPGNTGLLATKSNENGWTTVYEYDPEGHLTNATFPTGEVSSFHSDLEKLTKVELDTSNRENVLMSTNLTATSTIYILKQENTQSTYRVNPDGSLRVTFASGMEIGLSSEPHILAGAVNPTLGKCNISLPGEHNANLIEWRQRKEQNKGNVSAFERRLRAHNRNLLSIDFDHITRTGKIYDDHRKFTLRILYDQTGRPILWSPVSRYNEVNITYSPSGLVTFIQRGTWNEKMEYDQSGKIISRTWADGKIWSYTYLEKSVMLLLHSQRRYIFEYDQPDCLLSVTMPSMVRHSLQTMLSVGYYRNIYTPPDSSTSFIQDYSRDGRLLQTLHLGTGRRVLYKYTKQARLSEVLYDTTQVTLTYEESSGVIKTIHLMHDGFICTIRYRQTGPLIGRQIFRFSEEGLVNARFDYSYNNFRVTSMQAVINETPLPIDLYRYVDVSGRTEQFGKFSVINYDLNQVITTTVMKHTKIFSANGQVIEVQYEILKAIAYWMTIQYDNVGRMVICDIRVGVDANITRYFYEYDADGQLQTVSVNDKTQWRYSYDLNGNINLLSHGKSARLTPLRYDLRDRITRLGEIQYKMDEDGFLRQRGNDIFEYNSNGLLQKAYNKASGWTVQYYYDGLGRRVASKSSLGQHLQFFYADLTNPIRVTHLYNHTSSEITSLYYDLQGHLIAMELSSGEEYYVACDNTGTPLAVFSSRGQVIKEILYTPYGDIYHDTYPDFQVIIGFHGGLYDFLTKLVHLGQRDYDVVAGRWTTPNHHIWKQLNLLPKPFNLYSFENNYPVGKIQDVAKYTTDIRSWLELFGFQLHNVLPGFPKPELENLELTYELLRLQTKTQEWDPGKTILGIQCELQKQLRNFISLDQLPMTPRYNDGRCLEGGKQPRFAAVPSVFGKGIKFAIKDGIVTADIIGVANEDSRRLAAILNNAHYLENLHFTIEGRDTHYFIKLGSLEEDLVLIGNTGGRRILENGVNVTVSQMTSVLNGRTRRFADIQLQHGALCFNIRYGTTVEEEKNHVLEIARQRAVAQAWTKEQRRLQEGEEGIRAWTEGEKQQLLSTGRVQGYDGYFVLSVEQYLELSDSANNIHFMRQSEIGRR
T2 sequence (Q9UKZ4 other isoform, or with tags, fused parts or gaps): as above

B1: full-length SPARCL1 (ligand)
chain: IPTSTRFLSDHSNPTTATLVTPEDATVPIAGVEATADIENHPNDKAEKPSALNSEEETHEQSTEQDKTYSFEVDLKDEEDGDGDLSVDPTEGTLTLDLQEGTSEPQQKSLPENGDFPATVSTSYVDPNQRANITKGKESQEQPVSDSHQQPNESSKQTQDLKAEESQTQDPDIPNEEEEEEEDEEEEEEEEPEDIGAPSDNQEEGKEPLEEQPTSKWEGNREQSDDTLEESSQPTQISKTEKHQSEQGNQGQESDSEAEGEDKAAGSKEHIPHTEQQDQEGKAGLEAIGNQKDTDEKAVSTEPTDAAVVPRSHGGAGDNGGGDDSKHGAGDDYFIPSQEFLEAERMHSLSYYLKYGGGEETTTGESENRREAADNQEAKKAESSPNAEPSDEGNSREHSAGSCTNFQCKRGHICKTDPQGKPHCVCQDPETCPPAKILDQACGTDNQTYASSCHLFATKCRLEGTKKGHQLQLDYFGACKSIPACTDFEVAQFPLRMRDWLKNILMQLYEPNPKHGGYLNEKQRSKVKKIYLDEKRLLAGDHPIELLLRDFKKNYHMYVYPVHWQFNELDQHPADRILTHSELAPLRASLVPMEHCITRFFEECDPNKDKHITLKEWGHCFGIKEEDIDENLLF
B1 displayed a Kd in assay [1] of 73.2 nM.

B2: C-terminal SPARCL1-C domain of SPARCL1 (ligand)
chain: PNAEPSDEGNSREHSAGSCTNFQCKRGHICKTDPQGKPHCVCQDPETCPPAKILDQACGTDNQTYASSCHLFATKCRLEGTKKGHQLQLDYFGACKSIPACTDFEVAQFPLRMRDWLKNILMQLYEPNPKHGGYLNEKQRSKVKKIYLDEKRLLAGDHPIELLLRDFKKNYHMYVYPVHWQFNELDQHPADRILTHSELAPLRASLVPMEHCITRFFEECDPNKDKHITLKEWGHCFGIKEEDIDENLLF
B2 yielded a Kd in assay [1] of 88.2 nM. The Kd values of the last two molecules are within 1.5-fold of each other.

B3: EF-hand Ca2+-binding domain of SPARCL1 (ligand)
chain: ACTDFEVAQFPLRMRDWLKNILMQLYEPNPKHGGYLNEKQRSKVKKIYLDEKRLLAGDHPIELLLRDFKKNYHMYVYPVHWQFNELDQHPADRILTHSELAPLRASLVPMEHCITRFFEECDPNKDKHITLKEWGHCFGIKEEDIDENLLF
notes: also called EF-hand domain; EC domain
Take B3: the binding result in assay [2], in assay [3], in assay [4] and in assay [5] was “no binding” throughout.
